Our source for the Kd values is paper PMC6172466.

The assay concerns the target FlAsH-tagged K63-linked diubiquitin (UniProt P0CG48). In words: fluorescence polarisation; FlAsH-tagged K63-linked diUb (diluted to 80 nM, mixed 1:1) with serially diluted OTUD1; 50 mM Tris, 50 mM NaCl, 0.1% β-mercaptoethanol, pH 7.6; room temperature, 1 h. On the technique in general: In fluorescence polarisation assays a small probe gives low polarisation when free and higher when bound to something large.

B1: OTUD1 catalytic domain (residues 287-435) C320A (domain or fragment)
chain: DEKLALYLAEVEKQDKYLRQRNKYRFHIIPDGNALYRAVSKTVYGDQSLHRELREQTVHYIADHLDHFSPLIEGDVGEFIIAAAQDGAWAGYPELLAMGQMLNVNIHLTTGGRLESPTVSTMIHYLGPEDSLRPSIWLSWLSNGHYDAV
As usually defined, the Kd is the equilibrium constant for the complex coming apart. A high value points to lower affinity. Turning to B1, the Kd was found to be 40 µM.
